Reference: publication PMC4521985
pKd: −log10 of the molar value.

Columns and labels:
[1] = target: IFP1.4 (UniProt Q9RZA4); assay: AUC
[2] = target: IFP2.0 (UniProt Q9RZA4); assay: AUC

| pKd [1] | stoichiometry N [1] | pKd [2] | stoichiometry N [2] | Substance |
| --- | --- | --- | --- | --- |
| 5.11 | 2 | – | – | IFP1.4 (from UniProt Q9RZA4 1-321) |
| – | – | 5.43 | 2 | IFP2.0 (from UniProt Q9RZA4 1-321) |
